Results: patent publication US20250304712A1 (NATIONAL UNIVERSITY OF SINGAPORE, published 2025)
One block for each binder: values may come before it.

Columns and labels:
[1] = biological target: T1, Lymphocyte antigen 6 family member K (LY6K) expressed on the cell surface of human cells (human, UniProt Q17RY6 18-138); experiment: flow cytometry on human cancer cell lines
T1 construct: whole, on cells; overexpressed in HEK293T for ADCC; also called LY6K on Ca Ski, Calu-1 and other human cancer cell lines; HEK293T-Ly6K overexpressing cells
T1 sequence (looked up): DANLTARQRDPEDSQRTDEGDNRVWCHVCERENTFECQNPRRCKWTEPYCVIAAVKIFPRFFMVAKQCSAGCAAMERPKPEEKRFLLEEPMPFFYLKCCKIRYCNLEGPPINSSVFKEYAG

[2] = biological target: T1, Lymphocyte antigen 6 family member K …; experiment: flow cytometry on Calu-1 cells

- binding result [1]: binds
B1: murine anti-LY6K antibody G57 (antibody, V domains shown)
VH: EVQLVESGGDLVKPGGSLKLSCAASGFTFNSYGMSWVRQTPDKRLEWVATISSGGTYTYYSDSVKGRFTISRDNAKNILYLHMSSLKSEDTAMYYCARHDWDFFDYWGQGTTLTVSS
VL: DVVMTQTPLSLPVSLGDQASISCRSSQSLVHTDGDTYLNWYLQKPGQSPKLLIYKVSNRFSGVPDRFSGSGSGTDFTLKIRRVEAEDLGVYFCSQNTHVYTFGGGTKLE
notes: Hybridoma-derived; also called Ms G57

- binding result [2]: binds
B2: humanized 22C-G8 (antibody, V domains shown)
VH: QVQLVQSGAEVKKPGASVKVSCKASGYTFTSYWMHWVRQAPGQGLEWIGEINPSNGGANYNEKFKRRATMTVDKSTSTVYMELSSLRSEDTAVYYCTMGGNFFFAYWGQGTLVTVSS
VL: DVVMTQSPLSLSVTLGQPASISCKSSQSLLASDGKTYLNWFQQRPGQSPRRLIYLVSKLDSGVPDRFSGSGSGTDFTLKISRVEAEDVGVYYCWQGSHFPLTFGGGTKVE
notes: CDR-grafted into human frameworks; also called Hu22C-G8; Hu 22C-G8
